The supplement of paper PMC9170038

Legend:
[1] = test system: MS2 coat protein; experiment: apparent KD of MS2 coat protein; designed switch direction (-1 OFF switch, 1 ON switch): -1; higher = weaker reporter binding; settings: Eterna round: R98
Method: (§1)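 RNA-MaP: designed FMN/MS2 RNA switches (84 nt design region) are transcribed on-chip within common flanks and titrated with SNAP-549-labelled MS2 coat protein (about 1-3000 nM) in 100 mM Tris pH 7.5, 80 mM KCl, 4 mM MgCl2, without or with 200 uM FMN. Median apparent KD per design; activation ratio = KD,OFF / KD,ON.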

[2] = test system: MS2 coat protein; experiment: apparent KD of MS2 coat protein; designed switch direction (-1 OFF switch, 1 ON switch): 1; higher = weaker reporter binding; settings: Eterna round: R98
Method: as §1

## AUGCCGUGCAGAGCGCGACGGCGAACAUGAGGAUCACCCAUGUAGGAUAUACUACACAAAGUGUAGUAGAAGGACGUGCAACAA [Ex NG2 #97]
[1]; input ligand: FMN 200 uM
  apparent KD of MS2 coat protein: 38.1 nM
[1]; input ligand: none
  apparent KD of MS2 coat protein: 29.8 nM

## AAAAUAUAGGCAGGAUAUACAUGAAUAUAUAAUAUAAUAUAUAAUAUAACAUGAGGAUCACCCAUGUAGAAGGGCCAUAAUAAA [LRO028_Exclusion NG 2]
[1]; input ligand: FMN 200 uM
  apparent KD of MS2 coat protein: 72.7 nM
[1]; input ligand: none
  apparent KD of MS2 coat protein: 43.7 nM

## GGUUGUUACGCAGGAUAUUGCCAACAGGCAGUAGGAUAUCCGAAAGGAGAAGGAUUGCCAACAGGCGAGAAGGGCGGGUUAACC [pwkr exNG2 2xF7 2FMN.10.6]
[1]; input ligand: FMN 200 uM
  apparent KD of MS2 coat protein: 50.6 nM
[1]; input ligand: none
  apparent KD of MS2 coat protein: 33.3 nM

## GUAUGACAAAGUCAUACCGCUUUGACAUGAGGAUCACCCAUGUAGGAUAUAUUAAUCAAAGAUUAAUAGAAGGACAUGUUUCUG [Ex NG2 #68]
[1]; input ligand: FMN 200 uM
  apparent KD of MS2 coat protein: 175 nM
[1]; input ligand: none
  apparent KD of MS2 coat protein: 94.6 nM

## GCUUGCGACGCAGGAUAUGGGUGCCUGAACACGAGGAUCACCCGUGUAGAGGAAGCGAAAAGCUCUCAGAAGGGCGUCGCAGGC [United States 6 - Jieux - Same State NG 2]
[2]; input ligand: FMN 200 uM
  apparent KD of MS2 coat protein: 19.8 nM
[2]; input ligand: none
  apparent KD of MS2 coat protein: 50.5 nM

## GACGAAUUCUUAGGAUAUCGAGUGGAAUACACUCGAGAAGGAAGAUAUACCUGAGGAUCACCCAGGUAAAACUGGACGUCAAUA [Same State NG1 - A3C, U17G Submission 8D A68U]
[2]; input ligand: FMN 200 uM
  apparent KD of MS2 coat protein: 46.7 nM
[2]; input ligand: none
  apparent KD of MS2 coat protein: 193 nM

## GGAUGACAAAGUCAUCCUUAACGAACAUGAGGAUCACCCAUGUAGGAUAUGCUACACAAAGUGUAGCAGAAGGACAUGUGCCUU [Mat - Exclusion NG 3 - JL Mod - D88]
[1]; input ligand: FMN 200 uM
  apparent KD of MS2 coat protein: 294 nM
[1]; input ligand: none
  apparent KD of MS2 coat protein: 32.9 nM

## CGCUGUAAUGCAGGAUAUGCAUUGGAUUACAAUGCAGAAGGGCGAUUACAUGAGGAUCACCCAUGUAUAAACAGUGAAGAAGAG [Hyphema mod 5]
[2]; input ligand: FMN 200 uM
  apparent KD of MS2 coat protein: 26.9 nM
[2]; input ligand: none
  apparent KD of MS2 coat protein: 51.6 nM

## GCGUAAUUGAUCCUAUUUACCAACAUGAGGAUCACCCAUGUGCAGGAUAUGCUAAAGAUAGAUAAGCAGAAGGGCAAAUACCGC [JR_ExcNG3_Sub003]
[1]; input ligand: FMN 200 uM
  apparent KD of MS2 coat protein: 252 nM
[1]; input ligand: none
  apparent KD of MS2 coat protein: 67 nM

## CUAAUAUAGUGAGGAUAUGCACAGGAUCACCGUGUAGAAGGCAUCAGGUAGAAGGUGCAGAGGAUCACCCUGUAAGGAUAUACA [pwkr2 ssNG1 DX.5]
[2]; input ligand: FMN 200 uM
  apparent KD of MS2 coat protein: 102 nM
[2]; input ligand: none
  apparent KD of MS2 coat protein: 385 nM

## AAAUAAAAUAUAGGAUAUGGAAACAUGAGGAUCACCCAUGUAAAAUAAGAUAAAUAAUAAUAUAACCAGAAGGAUAAAAUAUAA [LRO003_SS NG 2]
[2]; input ligand: FMN 200 uM
  apparent KD of MS2 coat protein: 53.3 nM
[2]; input ligand: none
  apparent KD of MS2 coat protein: 30 nM

## CCUGACACUUGAGGAUAUGCUCAGGAAUACUGAGCAGAAGGCAGGGAAACCUGAGGAUCACCCAGGUAAGUCAGGAAUAAUAAA [Same State NG1 - A3C, U17G Submission 2A]
[2]; input ligand: FMN 200 uM
  apparent KD of MS2 coat protein: 21.9 nM
[2]; input ligand: none
  apparent KD of MS2 coat protein: 62 nM

## UUAUAAAAUAUAGGAUAUGGAAACAUGAGGAUCACCCAUGUAUGAUAAGAUAAAUUAUGAUAUAGCCAGAAGGAUACAAUAUAA [LRO010_SS NG 2]
[2]; input ligand: FMN 200 uM
  apparent KD of MS2 coat protein: 35.4 nM
[2]; input ligand: none
  apparent KD of MS2 coat protein: 32.9 nM

## UCGGUUUUCGCAGGAUAUGGAGGAUACUCCCACAUGAGCAUCAGCCAUGUCUGCAUGGAGGAAGGCCAGAAGGGCGAGAACCGA [United States 2 - Jieux - Same State NG 2]
[2]; input ligand: FMN 200 uM
  apparent KD of MS2 coat protein: 13.5 nM
[2]; input ligand: none
  apparent KD of MS2 coat protein: 31.6 nM

## UAUAUAAUAAGAGCUGGAAAACUCACAUGAGGAUCACCCAUGUAGGAUAUCAGCACGAUAAGUGCUGAGAAGGACAACCAGCUC [Denovo 73]
[1]; input ligand: FMN 200 uM
  apparent KD of MS2 coat protein: 17 nM
[1]; input ligand: none
  apparent KD of MS2 coat protein: 15.2 nM

## UUUACAUGAGGAUCACCCAUGUUUUGAAAGAUUGGUUUAGGUGAGGAUAUACAUGAUAAUGAAUUGUAGAAGGCACUGGGUACA [JR_SSNG3_Sub029]
[2]; input ligand: FMN 200 uM
  apparent KD of MS2 coat protein: 29.6 nM
[2]; input ligand: none
  apparent KD of MS2 coat protein: 39.3 nM

## CUGGUGAUGUAAGGAUAUGCUGAGGAAUACUCAGCAGAAGGUACAUGAGGAUCACCCAUGUAAAUGAAAGAUAAUAAACACCAG [Excusion NG 1/16-B1]
[1]; input ligand: FMN 200 uM
  apparent KD of MS2 coat protein: 29.1 nM
[1]; input ligand: none
  apparent KD of MS2 coat protein: 14.5 nM

## AGAACAUGAGGAUCACCCAUGUGAAGGUCGGCGUAUAAGGGUGAGGAUAUGCUUAAAAUAAGGAAGCAGAAGGUGCUUGGUGCG [SameState #79 NG3]
[2]; input ligand: FMN 200 uM
  apparent KD of MS2 coat protein: 102 nM
[2]; input ligand: none
  apparent KD of MS2 coat protein: 137 nM

## CUCGUUGUCACAGGAUAUGCCGCCGGACAUGAGGAUCACCCAUGUACCCGCUUGAGAAAACUGCGGUAGAAGGGUGACUUAUAA [Erriisin]
[2]; input ligand: FMN 200 uM
  apparent KD of MS2 coat protein: 46 nM
[2]; input ligand: none
  apparent KD of MS2 coat protein: 110 nM
